Test results: patent US20190284272A1 (published 2019)
Where a chain is given by its changes, count along the chain named.

T1: canine IL-31 protein (Canine_IL31) (canine)
T1 construct: Recombinant, secreted from CHO cells; also called cIL-31; canine cytokine
T1 chain: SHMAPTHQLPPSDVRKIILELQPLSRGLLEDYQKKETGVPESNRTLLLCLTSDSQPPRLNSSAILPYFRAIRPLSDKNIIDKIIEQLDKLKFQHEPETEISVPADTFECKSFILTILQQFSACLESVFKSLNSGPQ

T2: canine IL-31 protein (Canine_IL31)
T2 chain: T1 chain

B1: mouse anti IL-31 antibody 15H05 (antibody, mouse IgG1, kappa)
heavy: QVQLQQSAAELARPGASVKMSCKTSGYTFTSYTIHWIKQRPGQGLEWIGNINPTSGYTENNQRFKDKTTLTVDRSSNTAYLQLHSLTSEDSAVYFCARWGFKYDGEWSFDVWGAGTTVTVSSKTTPPSVYPLAPGSAAQTNSMVTLGCLVKGYFPEPVTVTWNSGSLSSGVHTFPAVLESDLYTLSSSVTVPSSPRPSETVTCNVAHPASSTKVDKKIVPRDCGCKPCICTVPEVSSVFIFPPKPKDVLTITLTPKVTCVVVDISKDDPEVQFSWFVDDVEVHTAQTQPREEQFNSTFRSVSELPIMHQDWLNGKEFKCRVNSAAFPAPIEKTISKTKGRPKAPQVYTIPPPKEQMAKDKVSLTCMITDFFPEDITVEWQWNGQPAENYKNTQPIMNTNGSYFVYSKLNVQKSNWEAGNTFTCSVLHEGLHNHHTEKSLSHSPGK
light: DIQMNQSPSSLSASLGDTITVTCRASQGISIWLSWYQQKPGNIPKVLINKASNLHIGVPPRFSGSGSGTHFTLTITSLQPEDIATYYCLQSQTYPLTFGGGTKLEINADAAPTVSIFPPSSEQLTSGGASVVCFLNNFYPKDINVKWKIDGSERQNGVLNSWTDQDSKDSTYSMSSTLTLTKDEYERHNSYTCEATHKTSTSPIVKSFNRNEC
notes: Mouse hybridoma antibody, mouse IgG1 heavy and mouse kappa light constant regions; also called Mu-15H05; MU-15H05
B2: ZTS-361 (antibody)
heavy: QVLLVQSGAEVRTPGASVKIFCKASGYSFTSYTIHWLRQAPAQGLEWMGNINPTSGYTENNQRFKDRLTLTADTSTNTAYMELSSLRSADTAMYYCARWGFKYDGEWSFDVWGAGTTVTVSSASTTAPSVFPLAPSCGTTSGATVALACLVLGYFPEPVTVSWNSGALTSGVHTFPAVLQASGLYSLSSMVTVPSSRWLSDTFTCNVAHPPSNTKVDKTVRKTDHPPGPKPCDCPKCPPPEAAGAPSIFIFPPKPKDTLSISRTPEVTCLVVDLGPDDSDVQITWFVDNTQVYTAKTSPREEQFNSTYRVVSVLPILHQDWLKGKEFKCKVNSKSLPSPIERTISKAKGQPHEPQVYVLPPAQEELSRNKVSVTCLIKSFHPPDIAVEWEITGQPEPENNYRTTPPQLDSDGTYFVYSKLSVDRSHWQRGNTYTCSVSHEALHSHHTQKSLTQSPGK
light: EIQMTQSPSSLSASPGDRVTITCRASQGISIWLSWYQQKPGNIPKVLINKASNLHIGVPSRFSGSGSGTDFTLTISSLEPEDAATYYCLQSQTYPLTFGGGTKLEIKRSDAQPSVFLFQPSLDELHTGSASIVCILNDFYPKEVNVKWKVDGVVQNKGIQESTTEQNSKDSTYSLSSTLTMSSTEYQSHEKFSCEVTHKSLASTLVKSFQRSECQRE
notes: Felinized 15H05 1.1 FW2, effector-null feline heavy constant region
B3: ZTS-1505 (antibody)
heavy: B2 heavy
light: EIQMTQSPSSLSASPGDRVTITCRASQGISIWLSWYQQKPGNIPKVLINKASNLHIGVPSRFSGSGSGTDFTLTISSLEPEDAATYYCLQSQTYPLTFGGGTKLEIKRSDAQPSVFLFQPSLDELHTGSASIVCILNDFYPKEVNVKWKVDGVVQNKGIQESTTEQNSKDSTYSLSSTLTMSSTEYQSHEKFSCEVTHKSLASTLVKSFQRSEC
notes: also called ZT-1 505
B4: Feline 15H05 1.1 FW1_2 (antibody, V domains shown)
VH: QVLLVQSGAEVRTPGASVKIFCKASGYSFTSYTIHWLRQAPAQGLEWMGNINPTSGYTENNQRFKDRLTLTADTSTNTAYMELSSLRSADTAMYYCARWGFKYDGEWSFDVWGAGTTVTVSS
VL: DIQMNQSPSSLSASLGDTITVTCRASQGISIWLSWYQQKPGNIPKVLINKASNLHIGVPSRFSGSGSGTDFTLTISSLEPEDAATYYCLQSQTYPLTFGGGTKLEIK
B5: Feline 15H05 VH3 mouse VL (antibody, V domains shown)
VH: B4 VH with T13K, A42E
VL: B4 VL with S60P, D70H, S76T, E79Q, A83I, K107N
B6: Feline 15H05 1.1 FW3 (antibody, V domains shown)
VH: B4 VH
VL: EIQMTQSPSSLSASPGDRVTITCRASQGISIWLSWYQQKPGKVPKLLIYKASNLHIGVPPRFSGSGSGTHFTLTITSLQPEDIATYYCLQSQTYPLTFGGGTKLEIK
B7: Feline 15H05 1.1 FW2 (antibody, V domains shown)
VH: B4 VH
VL: B4 VL with D1E, N5T, L15P, T18R, I19V, V21I
B8: Feline 15H05 VH2 mouse VL (antibody, V domains shown)
VH: B4 VH with S28G, L37V, A40S
VL: B4 VL with S60P, D70H, S76T, E79Q, A83I, K107N
B9: Feline 15H05 2.2 (antibody, V domains shown)
VH: B4 VH with S28G, L37V, A40S
VL: EITMTQSPGSLAGSPGQQVTMNCRASQGISIWLSWYQQKPGQHPKLLIYKASNLHIGVPDRFSGSGSGTDFTLTISNLQAEDVASYYCLQSQTYPLTFGGGTKLEIK
B10: Feline 15H05 1.1 (antibody, V domains shown)
VH: B4 VH
VL: B6 VL with P60S, H70D, T76S, Q79E, I83A
B11: Feline 15H05 2.1 (antibody, V domains shown)
VH: B4 VH with S28G, L37V, A40S
VL: B6 VL with P60S, H70D, T76S, Q79E, I83A
B12: Feline 15H05 3.2 (antibody, V domains shown)
VH: B4 VH with T13K, A42E
VL: B9 VL
B13: Feline 15H05 1.2 (antibody, V domains shown)
VH: B4 VH
VL: B9 VL
B14: Feline 15H05 VH1 mouse VL (antibody, V domains shown)
VH: B4 VH
VL: B4 VL with S60P, D70H, S76T, E79Q, A83I, K107N
B15: Feline 15H05 1.1 FW2_3 (antibody, V domains shown)
VH: B4 VH
VL: B6 VL with K42N, V43I, L46V, Y49N
B16: Feline_11E12 1.1_K46Q (antibody, V domains shown)
VH: QVLLVQSGAEVKKPGASVKIFCKASGYSFTYYDINWLRQAPEQGLEWMGWIFPGDGGTKYNETFKGRLTLTADTSTNTVYMELSSLRSADTAMYYCARGGTSVIRDAMDYWGQGALVTVSS
VL: EIQMTQSPSSLSASPGDRVTITCRASESVDNYGISFMHWYQQKPGQVPKLLIYRASNLESGVPSRFSGSGSGTDFTLTISSLEPEDAATYYCQQSNKDPLTFGQGT
B17: Feline 11E12 1.1 FW2 (antibody, V domains shown)
VH: B16 VH
VL: B16 VL with V47P
B18: Feline 15H05 1.1 FW1 (antibody, V domains shown)
VH: B4 VH
VL: B4 VL with N42K, I43V, V46L, N49Y
B19: Feline 15H05 1.3 (antibody, V domains shown)
VH: B4 VH
VL: EVVLTQSSAFLSRTLKEKATITCRASQGISIWLSWYQQKPNQAPKLLVKKASNLHIGAPSRFSGSGSGTDFTLTISSPEPEDAATYYCLQSQTYPLTFGGGTKLGDQ
B20: Feline 11E12 1.1 (antibody, V domains shown)
VH: B16 VH
VL: B16 VL with Q46K
B21: Feline 15H05 1.1 FW1_3 (antibody, V domains shown)
VH: B4 VH
VL: B6 VL with E1D, T5N, P15L, R18T, V19I, I21V
B22: Feline 15H05 3.1 (antibody, V domains shown)
VH: B4 VH with T13K, A42E
VL: B6 VL with P60S, H70D, T76S, Q79E, I83A

Molecular target: T1, canine IL-31 protein (Canine_IL31)
Assay: SPR (Biacore), IL-31 protein as surface
Procedure: The affinity with which candidate mAbs bind canine and feline IL-31 was determined using surface plasmon resonance (SPR) on a Biacore system (Biocore Life Sciences (GE Healthcare), Uppsala, Sweden). To avoid affinity differences associated with differential surface preparation that can occur when immobilizing antibodies to surfaces; a strategy was employed where IL-31 was directly conjugated to the surface. Immobilization was obtained by amine coupling 5 μg/mL IL-31 using N-hydroxysuccinimide (NHS)/1-Ethyl-3-(3-dimethylaminopropyl) carbodiimide (EDC) chemistry. Chips were quenched with ethanolamine and the affinity with which all candidate mAbs bound to the immobilized IL-31 was evaluated. All curves were fit to a 1:1 model. […] Results for affinity measurements are described herein.
Table 1 below describes the results for biacore analysis using multiple species of IL-31 protein as a surface capture.

B1 and B2 are within 1.5-fold of each other in Kd: 0.00191 nM for the first, 0.00241 nM for the second.

In the case of B3, the Kd is reported as 0.00183 nM.

Molecular target: T1, canine IL-31 protein (Canine_IL31)
Assay: cell-based or functional assay

First: B1
Second: B2
The “Inhibition of IL-31 induced pSTAT3 IC50 (µg/ml), Canine IL-31 on Canine DH82 cells” value of the first is lower: 11.2 µg/ml for the first, 23 µg/ml for the second.

In the case of B3, the “Inhibition of IL-31 induced pSTAT3 IC50 (µg/ml), Canine IL-31 on Canine DH82 cells” value is reported as 21.8 µg/ml.

Molecular target: T2, canine IL-31 protein (Canine_IL31)
Assay: Biacore

Compared with B1, B4 is 54-fold higher in Kd: 0.00487 nM for the first, 0.263 nM for the second.

First: B5
Second: B6
The Kd of the first is 49-fold lower: 0.00264 nM for the first, 0.13 nM for the second. The first binds more tightly here.

First: B7
Second: B8
The Kd of the first is 5200-fold lower: 0.000431 nM for the first, 2.22 nM for the second. The first binds more tightly here.

First: B9
Second: B10
The Kd of the first is 78-fold higher: 0.393 nM for the first, 0.00504 nM for the second. The second binds more tightly here.

Going from B11 to B12, the Kd falls from 1.65 nM to 0.204 nM (8.1-fold).

Going from B13 to B14, the Kd falls from 3.48 nM to 0.00246 nM (1400-fold).

Compared with B15, B16 is 110-fold lower in Kd: 214 nM for the first, 1.91 nM for the second. The second binds more tightly here.

First: B17
Second: B18
The Kd of the first is 120-fold lower: 7.02 nM for the first, 813 nM for the second. The first binds more tightly here.

Compared with B19, B20 is 8.4-fold lower in Kd: 6.38 nM for the first, 0.764 nM for the second.

First: B21
Second: B22
The Kd of the first is 180-fold lower: 0.00436 nM for the first, 0.795 nM for the second. The first binds more tightly here.
